T1: FADD (UniProt Q13158 1-208)
T1 construct: 35S-labeled by in vitro transcription-translation for the GST pull-down; also called AU1-FADD; FADD/MORT1
T1 sequence (looked up): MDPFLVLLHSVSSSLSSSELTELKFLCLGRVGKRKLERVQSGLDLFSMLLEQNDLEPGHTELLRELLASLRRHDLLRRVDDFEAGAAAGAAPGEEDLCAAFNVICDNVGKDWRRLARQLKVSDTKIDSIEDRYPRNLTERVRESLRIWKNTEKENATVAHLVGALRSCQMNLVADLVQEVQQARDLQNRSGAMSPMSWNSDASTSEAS

T2: RIP (UniProt Q13546 1-671, limits assumed)
T2 construct: 35S-labeled by in vitro translation for the GST pull-down; also called myc-RIP
T2 sequence (looked up): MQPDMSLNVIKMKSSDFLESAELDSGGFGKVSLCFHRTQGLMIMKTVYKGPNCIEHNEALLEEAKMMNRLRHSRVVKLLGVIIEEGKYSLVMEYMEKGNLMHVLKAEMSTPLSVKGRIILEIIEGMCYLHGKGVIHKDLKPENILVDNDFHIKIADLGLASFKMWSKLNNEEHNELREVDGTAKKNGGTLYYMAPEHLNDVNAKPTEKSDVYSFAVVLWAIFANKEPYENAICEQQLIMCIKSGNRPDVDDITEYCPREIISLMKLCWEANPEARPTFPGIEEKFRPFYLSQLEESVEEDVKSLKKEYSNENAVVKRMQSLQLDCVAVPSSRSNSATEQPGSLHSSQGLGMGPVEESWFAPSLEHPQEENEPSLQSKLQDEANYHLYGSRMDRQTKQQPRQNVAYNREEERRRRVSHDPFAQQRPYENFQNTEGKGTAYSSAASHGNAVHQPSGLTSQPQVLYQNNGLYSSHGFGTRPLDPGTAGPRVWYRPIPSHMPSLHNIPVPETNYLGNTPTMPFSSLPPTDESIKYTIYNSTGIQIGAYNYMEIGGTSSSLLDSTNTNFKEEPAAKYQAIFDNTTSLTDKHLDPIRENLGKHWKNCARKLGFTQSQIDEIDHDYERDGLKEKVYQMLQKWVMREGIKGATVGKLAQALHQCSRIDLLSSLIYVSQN

T3: recombinant, untagged TNF-gamma-beta protein (aa 72-251) from E. coli (human, UniProt O95150 72-251)
T3 construct: Purified from E. coli
T3 sequence (looked up): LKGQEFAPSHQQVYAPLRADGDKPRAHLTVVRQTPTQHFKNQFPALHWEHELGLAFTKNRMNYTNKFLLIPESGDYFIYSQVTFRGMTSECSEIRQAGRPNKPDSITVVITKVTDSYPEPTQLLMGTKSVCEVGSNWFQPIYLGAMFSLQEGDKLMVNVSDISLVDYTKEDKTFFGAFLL

T4: non-tagged form of TR6 (UniProt O95407 30-300)
T4 construct: also called TNFR-6 alpha; DcR3
T4 sequence (looked up): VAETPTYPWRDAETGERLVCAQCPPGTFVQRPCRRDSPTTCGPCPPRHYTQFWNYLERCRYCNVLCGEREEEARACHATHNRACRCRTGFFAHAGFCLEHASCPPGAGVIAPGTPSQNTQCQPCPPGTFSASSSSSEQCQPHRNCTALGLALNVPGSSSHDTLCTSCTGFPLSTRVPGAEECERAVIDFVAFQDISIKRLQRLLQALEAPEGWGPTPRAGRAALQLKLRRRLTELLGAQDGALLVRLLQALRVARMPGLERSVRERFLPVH

T5: Fc-fusion form of the extracellular domain of DR6 (UniProt O75509 42-349, limits assumed)
T5 construct: extracellular domain; not shown: Fc
T5 sequence (looked up): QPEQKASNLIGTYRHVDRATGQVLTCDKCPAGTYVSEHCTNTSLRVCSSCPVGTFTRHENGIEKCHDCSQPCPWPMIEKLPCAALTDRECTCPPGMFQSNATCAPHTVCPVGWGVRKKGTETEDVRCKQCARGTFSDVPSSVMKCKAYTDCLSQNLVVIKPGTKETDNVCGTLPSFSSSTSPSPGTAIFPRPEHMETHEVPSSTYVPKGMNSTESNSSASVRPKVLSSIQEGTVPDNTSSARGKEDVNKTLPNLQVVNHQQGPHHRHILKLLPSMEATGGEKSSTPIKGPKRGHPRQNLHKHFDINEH

B1: Fc-fusion form of the extracellular domain of OPG (Fc fusion, UniProt O00300 22-194, looked up)
chain: ETFPPKYLHYDEETSHQLLCDKCPPGTYLKQHCTAKWKTVCAPCPDHYYTDSWHTSDECLYCSPVCKELQYVKQECNRTHNRVCECKEGRYLEIEFCLKHRSCPPGFGVVQAGTPERNTVCKRCPDGFFSNETSSKAPCRKHTNCSVFGLLLTQKGNATHDNICSGNSESTQK
notes: extracellular domain; not shown: Fc
B2: Fc-fusion form of the extracellular domain of DcR2 (Fc fusion, UniProt Q9UBN6 56-211, looked up)
chain: ATIPRQDEVPQQTVAPQQQRRSLKEEECPAGSHRSEYTGACNPCTEGVDYTIASNNLPSCLLCTVCKSGQTNKSSCTTTRDTVCQCEKGSFQDKNSPEMCRTCRTGCPRGMVKVSNCTPRSDIKCKNESAASSTGKTPAAEETVTTILGMLASPYH
notes: as for B1
B3: Fc-fusion form of the extracellular domain of OX40 (Fc fusion, UniProt P43489 29-214, looked up)
chain: LHCVGDTYPSNDRCCHECRPGNGMVSRCSRSQNTVCRPCGPGFYNDVVSSKPCKPCTWCNLRSGSERKQLCTATQDTVCRCRAGTQPLDSYKPGVDCAPCPPGHFSPGDNQACKPWTNCTLAGKHTLQPASNSSDAICEDRDPPATQPQETQGPPARPITVQPTEAWPRTSQGPSTRPVEVPGGRA
notes: as for B1
B4: Fc-fusion form of the extracellular domain of TNFR1 (Fc fusion, UniProt P19438 30-211, looked up)
chain: LVPHLGDREKRDSVCPQGKYIHPQNNSICCTKCHKGTYLYNDCPGPGQDTDCRECESGSFTASENHLRHCLSCSKCRKEMGQVEISSCTVDRDTVCGCRKNQYRHYWSENLFQCFNCSLCLNGTVHLSCQEKQNTVCTCHAGFFLRENECVSCSNCKKSLECTKLCLPQIENVKGTEDSGTT
notes: extracellular domain; also called TNFR1-Fc; TNFRI.Fc; not shown: Fc
B5: GST fusion of the cytoplasmic domain of DR3 (amino acid residues 215-393 (SEQ ID NO:4)) (other)
chain: AGMEALTPPPATHLSPLDSAHTLLAPPDSSEKICTVQLVGNSWTPGYPETQEALCPQVTWSWDQLPSRALGPAAAPTLSPESPAGSPAMMLQPGPQLYDVMDAVPARRWKEFVRTLGLREAEIEAVEVEIGRFRDQQYEMLKRWRQQQPAGLGAVYAALERMGLDGCVEDLRSRLQRGP
notes: Made in E. coli BL21 (DE3) pLysS and immobilized on glutathione-agarose beads; The results paragraph calls it GST-DDCR (DDCR is the former name of DR3); also called GST-DR3; GST-DDCR; not shown: glutathione S-transferase from vector pGSTag
B6: extracellular domain of human DR3 (aa 1-199) fused at its C-terminus to the Fc domain of human IgG1 (Fc fusion, not shown: a dimerising Fc or GST)
chain: QGGTRSPRCDCAGDFHKKIGLFCCRGCPAGHYLKAPCTEPCGNSTCLVCPQDTFLAWENHHNSECARCQACDEQASQVALENCSAVADTRCGCKPGWFVECQVSQCVSSSPFYCQPCLDCGALHRHTRLLCSRRDTDCGTCLPGFYEHGDGCVSCPTSTLGSCPERCAAVCGWRQ
notes: also called DR3-Fc; DR3.Fc
B7: Fc-fusion form of the extracellular domain of RANK (Fc fusion, UniProt Q9Y6Q6 30-212, looked up)
chain: IAPPCTSEKHYEHLGRCCNKCEPGKYMSSKCTTTSDSVCLPCGPDEYLDSWNEEDKCLLHKVCDTGKALVAVVAGNSTTPRRCACTAGYHWSQDCECCRRNTECAPGLGAQHPLQLNKDTVCKPCLAGYFSDAFSSTDKCRPWTNCTFLGKRVEHHGTEKSDAVCSSSLPARKPPNEPHVYLP
notes: as for B1
B8: Fc-fusion form of the extracellular domain of DcR1 (Fc fusion, UniProt O14798 26-221, looked up)
chain: ATTARQEEVPQQTVAPQQQRHSFKGEECPAGSHRSEHTGACNPCTEGVDYTNASNNEPSCFPCTVCKSDQKHKSSCTMTRDTVCQCKEGTFRNENSPEMCRKCSRCPSGEVQVSNCTSWDDIQCVEEFGANATVETPAAEETMNTSPGTPAPAAEETMNTSPGTPAPAAEETMTTSPGTPAPAAEETMTTSPGTPA
notes: as for B1
B9: full length TNF-gamma-beta expressed on the cell surface (ligand, human, UniProt O95150 1-251, looked up)
chain: MAEDLGLSFGETASVEMLPEHGSCRPKARSSSARWALTCCLVLLPFLAGLTTYLLVSQLRAQGEACVQFQALKGQEFAPSHQQVYAPLRADGDKPRAHLTVVRQTPTQHFKNQFPALHWEHELGLAFTKNRMNYTNKFLLIPESGDYFIYSQVTFRGMTSECSEIRQAGRPNKPDSITVVITKVTDSYPEPTQLLMGTKSVCEVGSNWFQPIYLGAMFSLQEGDKLMVNVSDISLVDYTKEDKTFFGAFLL
notes: whole, on cells; also called TNF-gamma-beta expressing cells
B10: Fc-fusion form of the extracellular domain of AITR (Fc fusion, UniProt Q9Y5U5 26-162, looked up)
chain: QRPTGGPGCGPGRLLLGTGTDARCCRVHTTRCCRDYPGEECCSEWDCMCVQPEFHCGDPCCTTCRHHPCPPGQGVQSQGKFSFGFQCIDCASGTFSGGHEGHCKPWTDCTQFGFLTVFPGNKTHNAVCVPGSPPAEP
notes: as for B1

Experiments:
[1] = target: B9; assay: flow cytometry on HEK293F stable transfectants expressing full length TNF-gamma-beta
Description: (§1) TR6 has been previously described as a decoy receptor (Pitti et al., Nature 396:699-703 (1998); Yu et al., J. Biol Chem. 274:13733-6 (1999)) capable of competing with Fas and HveA for binding of FasL and LIGHT, respectively.
(§2) One million cells, in 0.1 ml of FACS buffer (PBS, 0.1% BSA, 0.1% NaN₃), were incubated with 0.1-1 microgram of protein or antibody at RT for 15 min. The cells were washed with 3 ml of FACS buffer, reacted with biotinylated primary antibody, and stained with PE-conjugated secondary antibody at RT for 15 min. Cells were then washed again, resuspended in 0.5 microgram/ml of propidium iodide, and live cells were gated and analyzed on a FACScan using the CellQuest software (BD Biosciences).

[2] = target: T1, FADD; assay: GST pull-down of in vitro translated 35S-labeled protein, SDS-PAGE and autoradiography
Description: (§3) In vitro binding experiments were performed as described previously (A. M. Chinnaiyan et al., Cell 81: 505-12 (1995); M. P. Boldin et al., J Biol Chem 270: 7795-8 (1995); F. C. Kischkel etal., EMBO 14: 5579-5588 (1995)). […] Following translation, equal amounts of total ³⁵S-labeled reticulocyte lysate were diluted into 150 μl GST binding buffer (50 mM Tris, pH 7.6,120 mM NaCl, 1% NP-40) and incubated for 2 hrs. at 4° C. with the various GST fusion proteins complexed to beads, following the beads were pelleted by plus centrifugation, washed three times in GST buffer, boiled in SDS-sample buffer and resolved on a 12.5% SDS-PAGE. Bound proteins were visualized following autoradioraphy at −80° C. […] After the beads were washed, retained proteins were analyzed by SDS-PAGE and autoradiography. The gel was Coomassie stained to monitor equivalency of loading.
(§4) As an initial screen, in vitro translated radiolabeled DAMs were precipitated with various glutathione S-transferase (GST) fusion proteins immobilized on glutathione-Sepharose beads.

[3] = target: T2, RIP; assay: as above
Description: as §3, §4

[4] = target: T3, recombinant, untagged TNF-gamma-beta …; assay: BIAcore 3000 (SPR), DR3-Fc amine-coupled to CM5 chip, TNF-gamma-beta 3-370 nM in flow, 1:1 binding model; DR3-Fc on the chip
Description: (§5) TNFR-Fc were covalently immobilized to the BIAcore sensor chip (CM5 chip) via amine groups using N-ethyl-N′-(dimethylaminopropyl) carbodiimide/N-hydroxysuccinimide chemistry. […] The amount of bound protein was determined during washing of the flow cell with HBS buffer (10 mM HEPES, pH 7.4, 150 mM NaCl, 3.4 mM EDTA, 0.005% Surfactant P20). The flow cell surface was regenerated by displacing bound protein by washing with 20 microliters of 10 mM glycine-HCl, pH 2.3. For kinetic analysis, the on and off rates were determined using the kinetic evaluation program in BIAevaluation 3 software using a 1:1 binding model and the global analysis method.

[5] = target: T3, recombinant, untagged TNF-gamma-beta …; assay: BIAcore 3000 (SPR), DR3-Fc amine-coupled to CM5 chip, three batches of TNF-gamma-beta, 1:1 binding model; DR3-Fc; average of three batches of TNF-gamma-beta
Description: as §5

[6] = target: T4, non-tagged form of TR6; assay: flow cytometry, competition with DR3-Fc for TNF-gamma-beta on HEK293F cells
Description: as §1, §2

[7] = target: T5, Fc-fusion form of the extracellular …; assay: flow cytometry on HEK293F stable transfectants expressing full length TNF-gamma-beta
Description: as §1, §2

Row | binding result [1] | Binder | also measured
1 | no binding | B1 | 
2 | no binding | B2 | 
3 | no binding | B3 | 
4 | no binding | B4 | 
5 |  | B5 | binding result [2]: no binding; binding result [3]: no binding
6 |  | B6 | koff [4]: 0.00413 s⁻¹; kon [4]: 639000 M⁻¹ s⁻¹; Kd [5]: 6.45 nM
7 | no binding | B7 | 
8 | no binding | B8 | 
9 |  | B9 | binding result [6]: binds; binding result [7]: no binding
10 | no binding | B10 | 

Source: patent publication US20030170203A1 (Human Genome Sciences, published 2003)
